Results on two molecules are retold here after patent publication US20110300156A1 (Genmab, published 2011).

Test [1] deals with T1, murine tissue factor (TF) on transfected HEK293F cells (murine, UniProt P20352 29-294).
T1 construct: whole, on cells; also called murine TF; TFmm
T1 sequence (looked up): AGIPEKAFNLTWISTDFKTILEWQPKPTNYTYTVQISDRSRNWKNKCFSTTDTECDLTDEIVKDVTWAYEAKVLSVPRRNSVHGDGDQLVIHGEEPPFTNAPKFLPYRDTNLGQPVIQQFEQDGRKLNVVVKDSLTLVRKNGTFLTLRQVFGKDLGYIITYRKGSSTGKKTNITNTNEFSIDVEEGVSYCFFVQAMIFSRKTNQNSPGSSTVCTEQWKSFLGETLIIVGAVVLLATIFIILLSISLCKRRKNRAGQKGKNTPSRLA
Kind of test: FACS on transfected HEK293F cells, 30 µg/mL antibody [panel M].

Test [2] deals with T2, human tissue factor (TF), membrane-bound on cells (human, UniProt P13726 33-295).
T2 construct: whole, on cells; also called cellular TF
Kind of test: FACS on AsPC-1 cells (~175.000 TF molecules/cell) [panel AsPC-1 cells]. The procedure: (§1) Cells were resuspended in PBS (2×10⁶ cells/ml), put in 96-well V-bottom plates (50 μl/well). 50 μl of serially diluted HuMab in FACS buffer (PBS supplemented with 0.1% BSA and 0.02% Na-azide) was added to the cells and incubated for 30 minutes on ice. After washing three times with FACS buffer, 50 μl of phycoerythrin (PE)-conjugated goat anti-human IgGFc (Jackson ImmunoResearch), diluted 1:100 in FACS buffer, was added. After 30 minutes on ice (in the dark), cells were washed three times, and specific binding of the HuMabs was detected by flow cytometry on a FACSCalibur (BD Biosciences). HuMab-KLH was used as a negative control. Mouse anti-TF followed by PE-conjugated anti-mouse IgGFc was used as positive control. Binding curves were analyzed using non-linear regression (sigmoidal dose-response with variable slope) using GraphPad Prism V4.03 software (GraphPad Software, San Diego, Calif., USA).
Binding of anti-TF HuMabs to membrane-bound TF on cell lines expressing different levels of TF was determined by FACS analysis, essentially as described supra. Mouse anti-TF antibody followed by PE-conjugated anti-mouse IgGFc was used as a positive control. Fluorescence was measured on a FACSCantoII. Binding curves were analyzed essentially as described supra, using GraphPad Prism 5 software. The amount of TF molecules on cell lines was determined by Qifi kit (Dako, Glostrup, Denmark), according to the manufacturer's instructions.

For test [3], the target named is T3, TFECDHis (extracellular domain of tissue factor, amino acid 1-251, with C-terminal His tag) (human, UniProt P13726 33-251).
T3 construct: range 1-251; The stated range 1-251 starts at residue 1 of NP-001984; also called extracellular domain of TF
Put plainly: SPR BIAcore 3000, HuMab immobilized, TFECDHis analyte. The procedure, abridged: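 HuMab antibodies (500 RU) amine-coupled on a CM-5 chip; TFECDHis concentration series in HBS-EP run over them at 30 μl/min for 180 sec. Surface regenerated with glycine pH 2.0 or acetate pH 3.0; kinetics from double-referenced 1:1 Langmuir fitting.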
For orientation: In SPR one partner is held on a chip, and binding of the other changes the refractive index at the surface.

Test [4] addresses T3, TFECDHis (extracellular domain of …). Kind of test: SPR avidity format: TFECDHis immobilized, bivalent HuMab as analyte (printed as avidity nM). Here is the method:
Antibody binding to TF was analyzed by surface plasmon resonance in a BIAcore 3000 (GE Healthcare). TFECDHis was used for the analysis. HuMab antibodies (500 resonance units) were immobilized on the CM-5 sensor chip according to the procedure recommended by the manufacturer. Briefly, after surface activation by EDC and NHS HuMab antibody was injected over the activated CM-5 surface in 10 mM sodium-acetate, pH ranging from 4.0 to 5.5 at 5 μl/min. followed by 1 M Ethanolamine for deactivation. Concentration series of TFECDHis in HBS-EP buffer were injected over the immobilized antibodies at a flow rate of 30 μl/min for 180 sec. Regeneration of the HuMab surface was performed by injection of 10 mM Glycine-HCl pH 2.0 or 10 mM sodium acetate pH 3.0. Kinetic analysis was performed using double reference subtraction and model 1:1 (langmuir) binding analysis.
TF (TFECDHis) binding to TF-specific HuMabs was determined essentially as described above, with TFECDHis being immobilized on the CM-5 sensor chip (300 resonance units), and concentration series of Humab antibodies used for kinetic analysis. Kinetic analysis was performed using double reference subtraction and model 1:1 (langmuir) binding analysis.

Test [5] addresses T2, human tissue factor (TF), …. Put plainly: FACS on SK-OV-3 cells (~60.000 TF molecules/cell) [panel SK-OV-3 cells]. Here is the method:
as §1
Binding of anti-TF HuMabs to membrane-bound TF on cell lines expressing different levels of TF was determined by FACS analysis, essentially as described supra. […] Fluorescence was measured on a FACSCantoII. Binding curves were analyzed essentially as described supra, using GraphPad Prism 5 software. The amount of TF molecules on cell lines was determined by Qifi kit (Dako, Glostrup, Denmark), according to the manufacturer's instructions.

Test [6] has as its target T1, murine tissue factor (TF) on …. Put plainly: FACS on transfected HEK293F cells, 30 µg/mL antibody [Figure 18; no figure label on the sheet]. The procedure: as §1
To determine domains important for binding of anti-TF HuMabs to human TF, DNA shuffling was performed between human and murine TF. Shuffle constructs were prepared from DNA encoding human TF, by replacing human domains with murine domains and from DNA encoding murine TF by replacing murine domains with human domains.

B1: anti-TF HuMab 109 (antibody, V domains shown)
VH: QVQLVESGGGVVQPGRSLRLSCPASGFTFSIYAMHWVRQAPGKGLEWVAVVSNDGYNKYYADSVKGRFTISRDNSKDTLYLQMNSLRAEDTAVYYCARDGQLGRGYFDYWGQGTLVTVSS
VL: EIVLTQSPATLSLSPGERAILSCRASQSVSSYLAWYQQKPGQAPRLLIYDASNRATGIPARFSGSGSGTDFTLTISSLEPEDFAVYYCQQRSNWPLTFGGGTKVEIK
notes: Human monoclonal antibody from HuMab mice
On to B1, for which, in test [1], the binding result is reported as “no binding (tested: 30 µg/mL)”. Also, the EC50 (read off the curve) – broadly, the concentration needed to bring the measured effect to its halfway point – is ~0.1 µg/mL in test [2] and ~0.04 µg/mL in test [5]. The Kd was determined as 4.75 nM in test [3] and 0.01 nM in test [4].

B2: anti-TF HuMab 013 (antibody, V domains shown)
VH: EVQLVQSGAEVKKPGESLKISCKGSGYSFTSYWIGWVRQMPGKGLEWMGIIYPGDSDTRYSPSFQGQVTISADKSISTAYLQWSSLKASDTAMYYCARIHRGAGYSSSWPGAFDIWGQGTMVTVSS
VL: DIQMTQSPSSLSASVGDRVTITCRASQGISRWLAWYQQKPEKAPKSLIYAASSLQSGVPSRFSGSGSGTDFTLTISSLQPEDFATYYCQQYDSDPITFGQGTRLEIK
notes: Human monoclonal antibody from HuMab mice; also called HuMab-TF-13
Regarding B2, the Kd in test [3] was 2.78 nM. Further, the binding result in test [6] was “no binding (tested: 30 µg/mL)”.
